Assay results reported in paper PMC9299485, “4‐Iodopyrimidine Labeling Reveals Nuclear Translocation and Nuclease Activity for Both MIF and MIF2” (Chemistry (Weinheim an Der Bergstrasse, Germany), 2021).

B1: MIF2: recombinant human MIF2 (D-dopachrome tautomerase), tested as nuclease on hgDNA (protein, UniProt P30046 2-118, looked up)
D-dopachrome decarboxylase: PFLELDTNLPANRVPAGLEKRLCAAAASILGKPADRVNVTVRPGLAMALSGSTEPCAQLSISSIGVVGTAEDNRSHSAHFFEFLTKELALGQDRILIRFFPLESWQIGKIGTVMTFL
B2: MIF: recombinant human macrophage migration inhibitory factor, tested as nuclease on hgDNA (protein, UniProt P14174 2-115, looked up)
Macrophage migration …: PMFIVNTNVPRASVPDGFLSELTQQLAQATGKPPQYIAVHVVPDQLMAFGGSSEPCALCSLHSIGKIGGAQNRSYSKLLCGLLAERLRISPDRVYINYYDMNAANVGWNNSTFA

System: human genomic DNA
Assay: Nuclease assay of MIF and MIF2 on human genomic DNA (agarose gel)
Format: biochemical
Settings: for concentration giving complete hgDNA cleavage: within 2 h, 37°C, Mg2+
Method: 7. Nuclease activity of MIF and MIF2.
Human genomic DNA was obtained from RPE-1 cells by DNA extraction following the protocol described in literature.[10] The nuclease assays were conducted by following the procedure described previously.[8] hgDNA (200 ng/reaction) was incubated with MIF or MIF2 in final concentration of 0.62 -20 µM as indicated in 10Mm Tris-HCl buffer (pH 7.0) containing 10mM MgCl2 (B and C) or specific buffer as indicated at 37°C for two hours. The reaction was terminated with loading buffer containing 10mM EDTA and incubation on ice. The human genomic DNA samples were immediately separated on a 1% agarose gel containing SYBR Safe (ThermoFisher) in 0.5 X TBE buffer with initial switch time of 1.5 s and a final switch time of 3.5 s for 12 hours at 6 V/cm. DNA was further detected by chemiluminescence.
Figure S7. hgDNA cleavage activity of MIF and MIF2. (A) The MIF2 nuclease activity is Mg 2+- […]
BITC is a covalent inhibitor that can form covalent bond with the N-terminal proline.[11] (C) […]
(1 picture or pasted object on this page, not shown here)

Molecule | nuclease activity relative to MIF (lower activity than MIF) [fold] | concentration giving complete hgDNA cleavage
B1 | 10 | above 10 μM
B2 | – | 1.25 µM
